Test results published in a protein production outcome set (Wang et al. 2014).

Assay: label from the status in PepcDB records

| Sequence | protein production |
| --- | --- |
| MGRIIGIDLGTTTSEIAYVKDGKPCIIRNIEEGDEHAIPSVVSIEGDEIKVGKKAKNQILLKPELTVAEVKRVMGTENIIQIQGKEYRPEEISALILKKLKEVAEYFLGEEVEEAVITVPANFNDIQRKATKNAGEIAGFKVERIINEPTAAAMAYGVDNLDKNGNILVYDFGGGTFDVTILEMFNGVLDVKVSRGNNYLGGKDIDNKLIDHVVNEFNKSTGVKLDTSDSRILARLKEGVEEAKKTLSTSKMAEIVLPYISADKDNNPINLEMVLTREEFEFNVKEIIDSTEDIVNEALEDANITDNEIDTVLLVGGSSRIPYVRNMLEKRFKGKIARGVNPDEAVALGASVQAAIKNDIPVGDSGTIIVTDTCNYTLGVALKGGIFDPIIDRDSKLPANVTKRYCTVMDNQTEVLVSVYEGESRYVSDNTLIDEFILSGIPKADTGKEKIDITFTYDLNGILNVSAEILSTGDEISKIMSTKGLSKEEIQDLKEVVSSNENNNELVPWKSANLFKLVEPNFRLAERKIPMLPSADREKLQEIMSDMKDAIVDNDKMALMKLDEELTDFLFDFVN | failed |
| MKNRYIILSILLFSVACRKFEPYPVFSKLALKKAFVDLGTHKLATFSVIRNSNYLVVFESGLGDDHTIWNSSNIALKAADTIDVVTYDRANRGQSGNGPVPRDVARLQSELGSVIDSFANGRKVVLIGHSLGGFMIRAWAVNNPTKVAGMLFIDPSHEKAGLDSAQNQQAEDYMYGKWSSYGTNFGAALESREWVEDNMYMATLGNLPDVPVIVLTAMKVDPPNKVEILKPWYDAHESLGTGVTDFTHVSIPNSGHMVMIDQPQILLNYIHVLLAKLH | failed |
| MIKPTPVAGTSLDRVDGVAKVTGQARYAGEYPEVGLLHGSVVSSTIARGRVLNIDSTQAMRVPGVIAVLDHGHRPHISSYDDDYSDADAAQGAPFRPLFDDRVLYNGQPLALVVAQTLELARYAGSLIRIEYAEEAHQTDLGACQQSHAAPAETPPPRGDFAAQFARAPVQVDATYLTANEYHNPMEPHASTVLYKGDGTLEIHDKTQGTQNCQDYLHKVFGLPKANIRVRAAFVGGAFGSGLRPQYQLPLAVMAALHLQRSVRVTLTRQQMFTFGYRPRTEQRLRLGADANGQLLAIAHDALGQTSRFEDFTEHVVEWSGMLYQCDNVALSYRLASLDVYTPLDMRAPGAASGMIALECAMDELACAAQIDPLDLRRRNFAASNANEGKPYSSKELLTCYRQGAERFGWQNRNPQPRSMRHGNQLVGWGMAGGVWEAMQMKASAKARFDAQGHLTVSSATTDIGTGTYTVMTQIAADAAGARVQDVTFVLGDSSLPTAPLQGGSFTVSSVGSAVRQACQVLRTKVLEHARRMYPQVASTAREQIIFADGYLHAGSHRLALADIIASAPEGEFEVQIDAEPGARRQPFSTATHSAVFAEVHVDEDLGTIKVVRVVSAVAAGRVINPKTARSQILGGVVWGVGMALHEAALTDHRLGRIVNHNLAEYHIPVNADSGDIEVIFVEEHDDIVNELGSKGVGEIGVVGVAAAVANAVYHATGKRVREFPITLDKLLKDNSQV | failed |
| MESVKTGKTNKVGKNTEMANTKANKETHFKQVSAITNIIRSVGGFFTKIAKRVRGLVKKHPKKSSAALVVLTHIACKKAKELDDKVQDKSKQAEKENQINWWKYSGLTIAASLLLAACSAGDTDKQIELEQEKKEAENARDRANKSGIELEQERQKTNKSGIELANSQIKAEQERQKTEQEKQKANKSAIELEQQKQKTINTQRDLIKEQKDFIKETEQNCQENHNQFFIKKLGIKGGIAIEVEAECKTPKPAKTNQTPIQPKHLPNSKQPHSQRGSKAQEFIAYLQKELEFLPYSQKAIAKQVNFYKPSSIAYLELDPRDFKVTEEWQKENLKIRSKAQAKMLEMRDLKPDPQAHLPTSQSLLFVQKIFADVNKEIEAVANTEKKAEKAGYGYSKRM | failed |
| MTIGRAKVYATLSKIFYHLFYDEAIPKDCREIIEKFGEIDFNLRSVLVRELRGSVLIKDMPQSLAEVYESVMKDFYERYGFQASELHADHIAVELAFMSKLVEREISLAQQMKEEELYKIRAAQHRFIKAHLQPLVKNLPSAPLLNFVRDFVREDAKYLYSSLVGEKNEGADNN | not failed |
| MELLCHEVDPVRRAVRDRNLLRDDRVLQNLLTIEERYLPQCSYFKCVQKDIQPYMRRMVATWMLEVCEEQKCEEEVFPLAMNYLDRFLAGVPTPKSHLQLLGAVCMFLASKLKETSPLTAEKLCIYTDNSIKPQELLEWELVVLGKLKWNLAAVTPHDFIEHILRKLPQQREKLSLIRKHAQTFIALCATDFKFAMYPPSMIATGSVGAAICGLQQDEEVSSLTCDALTELLAKITNTDVDCLKACQEQIEAVLLNSLQQYRQDQRDGSKSEDELDQASTPTDVRDIDL | not failed |
| MSMLKPSGLKAPTKILKPGSTALKTPTAVVAPVEKTISSEKASSTPSSETQEEFVDDFRVGERVWVNGNKPGFIQFLGETQFAPGQWAGIVLDEPIGKNDGSVAGVRYFQCEPLKGIFTRPSKLTRKV | not failed |
| MKFLVENLNGSSFELEVDYRDTLLVVKQKIERSQHIPVSKQTLIVDGIVILREDLTVEQCQIVPTSDIQLEVSS | not failed |
| MTNWTEIDEIAKKWIREAGARITQSMHESLTIETKSNPNDLVTNIDKETEKFFIDRIQETFPGHRILGEEGQGDKIHSLEGVVWIIDPIDGTMNFVHQQRNFAISIGIFENGEGKIGLIYDVVHDELYHAFSGRGAYMNETKLAPLKETVIEEAILAINATWVTENRRIDQSVLAPLVKRVRGTRSYGSAALELANVAAGRIDAYITMRLAPWDYAAGCVLLNEVGGTYTTIEGEPFTFLENHSVLAGNPSIHKTIFEEYLHARK | failed |
| MNGYVYLVGAGPGDEGLITKKAIECLKRADIVLYDRLLNPFFLSYTKQTCELMYCGKMPKNHIMRQEMINAHLLQFAQEGKIVVRLKGGDPSIFGRVGEEAETLAAANIPYEIVPGITSSTAASSYAGIPLTHRNYSNSVTLLTGHAKGSLTDHGKYNSSHNSDTIAYYMGIKNLPTICKNLRQAGKKEDTPVAVIEWGTTGKQRVVTGTLSTIVSIVKNENISNPSMTIVGDVVSLRDQIAWKEHKPLHGKKVLFTSATNKTSVMKQKLQEAGAEIYQIPTFKKEEYTLTLEQIIEIFNVNRLVFCSAESVEILMQSCSKYKKDIRSLQAELQHMNVATQEKLMQYGLLSKEAKFSSDTTVYLGRNINRIAFIQEKIGAGSYMMTHKYTIDHRFDEVHSRMLSEFLWDSIVFEGRASIDTFLAEVKRLGFLDIVTLPFSYTDVPTLRYANKVGFHNIDHQLQETLMQKDMVRQ | failed |
| TPAVVERADADSQYEILVGGQRAGLTAYRDLGAQRVFFHTEIDEAFAGQGLASQLVQQALVDVRASGMRIVPVCPYVAKFLKRHDEFADITDPVTPEVLRW | not failed |
| MRPMASELTTFVLIFGTLLFVFGLFSRKIEGTVVTIQMIFLAAGILLSPIGLNLISLSPRSGLVLGVIKVALVLTFFSDASLIGLHSLFLKERLSVRLLFLGLSLTICLGTVFAALLFADITFIDAILLGIILAPTDASLAQKVVEERQVPTLIRNGLIIESGLNDGAVMPLFIFVVALEAVEKLNRPLGTFLAIALEQIGFGIFVGIIIGLVGGWLFSRAFKAGSMSEVYYRTEFVALALISWLVADGVGGNGFIAAFIAGLATRIEDRQVTEEEVILLPRAEGNVLNLAVLFILGVMSAEYLPLVDLKIFAYAVLSLTVVRMVPVTISLIGSHLNIKTGLFMGWFGPRGLASIVLMLITVERIEGIRVSGTIGLAVITTVIISVFAHGITAGPVSNWYARIIATLPPDAPEKESVEELTALQGIETTENIHKEPY | failed |
| MRMNILLAFKAEPDAGMLAEKEWQAAQGNSGPDVSLLRSLLGADEQAAAALLLAQRKNGTSMSLTALSMGDERALHWLRYLMALGFEDAVLLETAADLRFAPEFVARHIAEWQYQNPLELIITGCQSSEGQNGQTPFLLAEMLGWPCFTQVERFTLDAPFITLEQRTENGLRCCRVRLPAVIAVRQCGEVALPVPGMRQRMAAGKAEIIRKTVAAEMPAMQCLQLARAEQRRGATLIDGQTVAEKAQKLWQYYLCQRMQP | failed |
| MIIRGIRGARINNEIFNLGLKFQILNADVVATKKHVLHAINQAKTKKPIAKSFWMEILVRASGQRQIHEAIKIIGAKDGNVCLICEDEETFRKIYELIGGEIDDSVLEINEDKERLIREIFKIRGFGNVVERVLEKIALIELKKE | not failed |
| MLVLIMWLCQQRSCRRLKRGDPMAQFENNRQRLFVPAVAPLYNSTHDLVETILRVAAGLLLVTHGFGKIVNPFGAVGMVESLGFHPGVFWSPLLAATEFFGGILVAIGLFTRPASFAAMIVLLVTVYFHGIVKAEGLGGAEKSILWAAIFLFFAVRGGNRHSVDAKLTREF | failed |
| MWRVRCKAKGGTHLLQGLSSRTRLRELQGQIAAITGIAPGSQRILVGYPPECLDLSDRDITLGDLPIQSGDMLIVEEDQTRPKASP | not failed |
| MPGIDKLPIEETLEDSPQTRSLLGVFEEDATAISNYMNQLYQAMHRIYDAQNELSAATHLTSKLLKEYEKQRFPLGGDDEVMSSTLQQFSKVIDELSSCHAVLSTQLADAMMFPITQFKERDLKEILTLKEVFQIASNDHDAAINRYSRLSKKRENDKVKYEVTEDVYTSRKKQHQTMMHYFCALNTLQYKKKIALLEPLLGYMQAQISFFKMGSENLNEQLEEFLANIGTSVQNVRREMDSDIETMQQTIEDLEVASDPLYVPDPDPTKFPVNRNLTRKAGYLNARNKTGLVSSTWDRQFYFTQGGNLMSQARGDVAGGLAMDIDNCSVMAVDCEDRRYCFQITSFDGKKSSILQAESKKDHEEWICTINNISKQIYLSENPEETAARVNQSALEAVTPSPSFQQRHESLRPAAGQSRPPTARTSSSGSLGSESTNLAALSLDSLVAPDTPIQFDIISPVCEDQPGQAKAFGQGGRRTNPFGESGGSTKSETEDSILHQLFIVRFLGSMEVKSDDHPDVVYETMRQILAARAIHNIFRMTESHLLVTCDCLKLIDPQTQVTRLTFPLPCVVLYATHQENKRLFGFVLRTSSGRSESNLSSVCYIFESNNEGEKICDSVGLAKQIALHAELDRRASEKQKEIERVKEKQQKELNKQKQIEKDLEEQSRLIAASSRPNQASSEGQFVVLSSSQSEESDLGEGGKKRESEA | failed |
| MKNLKIIWIYRLGLLLLVFLCLLVFLKIKPLWAPIIFVCKVAITPFLIACFIAYLLHPLIEKIHKEGMPRTLAILLIYILFFGGIGYGIYKGTPVVIKQLQEINEQFPQFTKMYDSWMDGVTEQTANFPSFIHEKVKQIFVGVETKIQALLNKVMSTARGVLDSLLIIFLIPFIVFYILKDYGEFYHIFWKLVPSKWRSTGQMLAKEIDKSLGSYIRGQLFVCLVLGGVSALSFWFIGMKYPLLLGIIIGVTDIIPYFGPILGAIPTLMIAATVSTSLLIKAGIAIAILQFVESNILSPYIVGKSLRMHPVIIMLALLVGGEVGGIVGLLISVPILAVIRTVIVHVRPLWKKEDMQ | failed |
| MAAAGAPDGMEEPSMDTEAEAVATEAPARPLNCVEAEAVVGTAAEDSCDARGNLQPAPAQPPGDPAAQASVSNGEDAGGGAGRELVDLKIIWNKTKHDVKVPLDSTGSELKQKIHSITGLPPAMQKVMYKGLVPEDKTLREIKVTSGAKIMVVGSTINDVLAVNTPKDAAQQDAKAEESKKEPLCRQKQHRKVLDKGKPEDVMPSVKGAQERLPTVPLSGMYNKSGGKVRLTFKLEQDQLWIGTKERTEKLPMGSIKNVVSEPIEGHEDYHMMAFQLGPTEASYYWVYWVPTQYVDAIKDTVLGKWQYF | failed |
| MERQQQQQQQLRNLRDFLLVYNRMTELCFQRCVPSLHHRALDAEEEACLHSCAGKLIHSNHRLMAAYVQLMPALVQRRIADYEAASAVPSVAAEQPGVSPSGS | not failed |
